Data reported in paper PMC9398005 (2021).
Blank lines part the entries; values can stand above or below the binder they belong to.

Key:
Assay in all cases: ITC
mouse Rbpj (53-474) WT = mouse Rbpj (53-474) WT (mouse, UniProt P31266 53-474)
[1] = biological target: Drosophila Su(H) (98-523) K132M (Drosophila, UniProt P28159 98-523, K132M | R155T)
[2] = biological target: Drosophila Su(H) (98-523) E137V (Drosophila, UniProt P28159 98-523, E137V | R155T)
[3] = biological target: mouse Rbpj (53-474) K195E (mouse, UniProt P31266 53-474, K195E)
mouse Rbpj (53-474) K195E, sequence (P31266 53-474 K195E): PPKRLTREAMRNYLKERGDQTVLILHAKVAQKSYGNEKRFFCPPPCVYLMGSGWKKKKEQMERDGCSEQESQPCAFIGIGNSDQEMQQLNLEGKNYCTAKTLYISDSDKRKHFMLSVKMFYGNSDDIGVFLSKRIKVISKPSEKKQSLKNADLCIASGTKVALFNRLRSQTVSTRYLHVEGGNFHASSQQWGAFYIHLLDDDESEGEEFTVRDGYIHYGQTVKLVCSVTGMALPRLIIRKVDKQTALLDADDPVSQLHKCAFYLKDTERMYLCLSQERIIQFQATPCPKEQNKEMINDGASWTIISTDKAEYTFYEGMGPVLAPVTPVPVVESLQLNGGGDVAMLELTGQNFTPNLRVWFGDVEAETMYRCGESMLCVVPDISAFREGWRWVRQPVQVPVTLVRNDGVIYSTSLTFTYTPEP

Drosophila Su(H) (98-523) K132M, sequence (P28159 98-523 K132M/R155T/N281G): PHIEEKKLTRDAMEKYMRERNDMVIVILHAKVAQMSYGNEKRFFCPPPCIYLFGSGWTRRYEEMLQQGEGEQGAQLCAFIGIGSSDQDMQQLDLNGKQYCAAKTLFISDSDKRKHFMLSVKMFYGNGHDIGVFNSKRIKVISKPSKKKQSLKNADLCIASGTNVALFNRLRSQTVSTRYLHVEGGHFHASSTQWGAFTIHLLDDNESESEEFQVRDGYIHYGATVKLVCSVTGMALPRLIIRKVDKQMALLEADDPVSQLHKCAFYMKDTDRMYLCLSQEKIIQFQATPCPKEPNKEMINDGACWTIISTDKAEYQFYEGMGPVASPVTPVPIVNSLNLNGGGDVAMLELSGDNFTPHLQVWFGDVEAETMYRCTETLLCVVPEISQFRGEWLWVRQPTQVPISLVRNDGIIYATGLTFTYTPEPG
mouse Rbpj (53-474) WT, sequence (P31266 53-474): as the sequence (P31266 53-474 K195E) above, with E143K counted along it
Drosophila Su(H) (98-523) E137V, sequence (P28159 98-523 E137V/R155T/N281G): as the sequence (P28159 98-523 K132M/R155T/N281G) above, with M35K, E40V counted along it

- Kd (mouse Rbpj (53-474) WT): 4 nM
B1: SHARP residues 2776-2833 (domain or fragment)
chain: RASANENSRFHPGSMPVIDDRPADAGSGAGLRVNTSEGVVLLSYSGQKTEGPQRISAK

- Kd [1]: 107 nM
- Kd [2]: 166 nM
Binder: VLSTQRKRAHGVTWFPEGFRAPAAVMSR [Drosophila Notch RAM peptide (residues 1763-1790)]

- Kd [3]: 22 nM
Binder: VLLSRKRRRQHGQLWFPEGFKVSEASKK [Notch1 RAM peptide (human Notch1 residues 1754-1781)]
